Tests used:
[1] = target: T1, alphaVbeta3 integrin, native human, on rhabdomyosarcoma (RD) cells and on human umbilical vein endothelial … (human, UniProt P06756 31-1048; P05106 27-788); assay: flow cytometry on RD cells expressing alphaVbeta3, PE anti-human IgG; EC50 = concentration where 50% of cells gated in R2
T1 construct: whole, on cells; also called αVβ3; native human β3
Description: (§1) The binding of NS0-derived HLMC Composite Human Antibody™ variants to rhabdomyosarcoma (RD) cells expressing alphaVbeta3 integrin was assessed in a flow cytometry binding assay. Briefly, a subconfluent monolayer of RD cells was prepared and incubated in serum free medium for 24 hours prior to harvest. […] Cells were resuspended into a suitable volume of cold FACS buffer (1% FBS/0.01% sodium azide/PBS) to yield a final cell density of 4×10⁶ cells/ml.
(§2) The plates were incubated at 4° C. for 1 hour. Cells were washed with FACS buffer, resuspended in 100 μl of secondary antibody (Sigma Cat. No. P8047, goat anti-human IgG (γ chain specific; PE conjugated) and incubated for 1 hour at 4° C. Cells were washed twice, resuspended in a final volume of 175 μl FACS buffer and transferred to FACS tubes. Fluorescence was measured by flow cytometry and data plotted as normalized % positive events (gated in R2).

[2] = target: T1, alphaVbeta3 integrin, native human, on …; assay: flow cytometry on RD cells expressing alphaVbeta3; reference chimeric HLMC
Description: as §1, §2

T1 sequence (P06756 31-1048, chain 1 of 2): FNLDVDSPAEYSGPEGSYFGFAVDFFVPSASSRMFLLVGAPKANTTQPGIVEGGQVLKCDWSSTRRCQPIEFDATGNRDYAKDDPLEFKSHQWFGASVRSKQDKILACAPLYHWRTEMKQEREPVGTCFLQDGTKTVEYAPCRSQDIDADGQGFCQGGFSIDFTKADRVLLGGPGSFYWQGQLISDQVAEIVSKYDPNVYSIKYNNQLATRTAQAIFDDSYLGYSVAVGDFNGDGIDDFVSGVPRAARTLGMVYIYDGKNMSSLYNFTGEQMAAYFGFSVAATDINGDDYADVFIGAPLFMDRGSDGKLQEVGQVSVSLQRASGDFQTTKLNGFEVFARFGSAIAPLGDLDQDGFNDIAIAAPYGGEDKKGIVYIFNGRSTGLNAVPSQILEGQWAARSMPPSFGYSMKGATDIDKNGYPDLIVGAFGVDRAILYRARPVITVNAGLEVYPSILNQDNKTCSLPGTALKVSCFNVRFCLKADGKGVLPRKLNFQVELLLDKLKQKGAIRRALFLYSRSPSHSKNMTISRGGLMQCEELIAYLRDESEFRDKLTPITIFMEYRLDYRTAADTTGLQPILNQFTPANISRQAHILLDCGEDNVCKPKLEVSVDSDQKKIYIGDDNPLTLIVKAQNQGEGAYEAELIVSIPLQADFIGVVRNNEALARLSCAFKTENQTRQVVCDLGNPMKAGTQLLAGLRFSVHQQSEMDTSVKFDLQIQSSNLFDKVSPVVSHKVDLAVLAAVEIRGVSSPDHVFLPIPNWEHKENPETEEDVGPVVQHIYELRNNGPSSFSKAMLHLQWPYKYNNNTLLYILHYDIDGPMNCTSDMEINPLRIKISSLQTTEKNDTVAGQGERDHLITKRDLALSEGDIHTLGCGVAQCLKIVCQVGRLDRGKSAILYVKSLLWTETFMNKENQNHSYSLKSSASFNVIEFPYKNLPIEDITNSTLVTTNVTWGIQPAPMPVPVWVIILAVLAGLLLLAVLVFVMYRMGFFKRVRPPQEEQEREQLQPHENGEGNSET
T1 sequence (P05106 27-788, chain 2 of 2): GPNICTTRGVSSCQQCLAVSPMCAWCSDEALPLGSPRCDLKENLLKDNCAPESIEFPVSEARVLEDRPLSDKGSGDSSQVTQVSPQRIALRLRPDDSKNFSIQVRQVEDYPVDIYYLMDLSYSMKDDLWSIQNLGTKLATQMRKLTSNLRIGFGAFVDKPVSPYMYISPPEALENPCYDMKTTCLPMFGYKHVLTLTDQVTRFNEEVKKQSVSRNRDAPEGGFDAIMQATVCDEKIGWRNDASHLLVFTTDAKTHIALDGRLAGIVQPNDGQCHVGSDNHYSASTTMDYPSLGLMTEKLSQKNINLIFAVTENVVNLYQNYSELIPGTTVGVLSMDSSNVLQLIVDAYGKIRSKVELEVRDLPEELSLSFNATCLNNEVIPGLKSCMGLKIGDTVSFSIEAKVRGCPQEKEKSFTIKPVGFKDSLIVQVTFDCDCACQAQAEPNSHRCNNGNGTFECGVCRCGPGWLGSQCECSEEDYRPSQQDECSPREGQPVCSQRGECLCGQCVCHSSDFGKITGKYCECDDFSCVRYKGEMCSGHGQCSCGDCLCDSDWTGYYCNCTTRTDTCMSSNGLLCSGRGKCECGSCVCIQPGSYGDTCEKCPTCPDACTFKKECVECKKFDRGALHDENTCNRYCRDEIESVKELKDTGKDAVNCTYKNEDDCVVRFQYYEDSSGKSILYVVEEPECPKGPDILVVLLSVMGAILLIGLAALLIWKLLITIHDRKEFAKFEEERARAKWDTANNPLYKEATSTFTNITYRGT

EC50 [1] [nM]	relative binding score (EC50 of variant divided by EC50 of chimeric HLMC) [2] [ratio]	Binder
47.4	13.2	VH3/Vκ2 Composite Human Antibody variant of HLMC (antibody, human IgG1, kappa, V domains shown, also called VH3/Vk2) VH: QAQLVQSGAEVKKPGASVKVSCKASGYLFSNSWMNWVKQRRGAGLEWIGRIFPGDGDTNYNGKFKGRATITADKSTSTAYMELSSLRSEDTAVYFCARWGLTRDRRLYLDYWGQGTTVTVSS VL: DIVMTQSPDSLAVSLGERATINCKSSQSLLYSSNQKNYLAWYQQKPGQAPRLLIYWASTRESGVPDRFTGSGSGTDFTLTISSLQAEDVAVYYCKQYYTYPLTFGQGTKLEIKR
4.55	1.27	VH2/Vκ1 Composite Human Antibody variant of HLMC (antibody, human IgG1, kappa, V domains shown, also called VH2/Vk1) VH: QAQLVQSGPEVKKPGASVKVSCKASGYLFSNSWMNWVKQRPGAGLEWIGRIFPGDGDTNYNGKFKGRATITADKSTSTAYMELSSLRSEDTAVYFCARWGLTRDRRLYLDYWGQGTTVTVSS VL: DIVMTQSPDSLVVSLGERATINCKSSQSLLYSSNQKNYLAWYQQKSGQAPRLLIYWASTRESGVPDRFTGSGSGTDFTLTISSLQAEDVAVYYCKQYYTYPLTFGQGTKLEIKR
5.43	1.52	VH1/Vκ2 Composite Human Antibody variant of HLMC (antibody, human IgG1, kappa, V domains shown, also called VH1/Vk2) VH: QAQLVQSGPELKKPGASVKVSCKASGYLFSNSWMNWVKQRPGAGLEWIGRIFPGDGDTNYNGKFKGRATITADKSTSTAYMELSSLRSEDSAVYFCARWGLTRDRRLYLDYWGQGTTVTVSS VL: DIVMTQSPDSLAVSLGERATINCKSSQSLLYSSNQKNYLAWYQQKPGQAPRLLIYWASTRESGVPDRFTGSGSGTDFTLTISSLQAEDVAVYYCKQYYTYPLTFGQGTKLEIKR
4.08	1.14	VH1/Vκ3 Composite Human Antibody variant of HLMC (antibody, human IgG1, kappa, V domains shown, also called VH1/Vk3) VH: QAQLVQSGPELKKPGASVKVSCKASGYLFSNSWMNWVKQRPGAGLEWIGRIFPGDGDTNYNGKFKGRATITADKSTSTAYMELSSLRSEDSAVYFCARWGLTRDRRLYLDYWGQGTTVTVSS VL: DIVMTQSPDSLAVSLGERATINCKSSQSLLYSSNQKNYLAWYQQKPGQAPRLLIYWASTRESGVPDRFSGSGSGTDFTLTISSLQAEDVAVYYCKQYYTYPLTFGQGTKLEIKR
3.15	0.88	VH5/Vκ3 Composite Human Antibody variant of HLMC (antibody, human IgG1, kappa, V domains shown, also called VH5/Vk3) VH: QAQLVQSGAEVKKPGASVKVSCKASGYLFSNSWMNWVKQRRGAGLEWIGRIFPGDGDTNYNGKFKGRVTITADKSTSTAYMELSSLRSEDTAVYYCARWGLTRDRRLYLDYWGQGTTVTVSS VL: DIVMTQSPDSLAVSLGERATINCKSSQSLLYSSNQKNYLAWYQQKPGQAPRLLIYWASTRESGVPDRFSGSGSGTDFTLTISSLQAEDVAVYYCKQYYTYPLTFGQGTKLEIKR
4.92	1.37	VH2/Vκ2 Composite Human Antibody variant of HLMC (antibody, human IgG1, kappa, V domains shown, also called VH2/Vk2) VH: QAQLVQSGPEVKKPGASVKVSCKASGYLFSNSWMNWVKQRPGAGLEWIGRIFPGDGDTNYNGKFKGRATITADKSTSTAYMELSSLRSEDTAVYFCARWGLTRDRRLYLDYWGQGTTVTVSS VL: DIVMTQSPDSLAVSLGERATINCKSSQSLLYSSNQKNYLAWYQQKPGQAPRLLIYWASTRESGVPDRFTGSGSGTDFTLTISSLQAEDVAVYYCKQYYTYPLTFGQGTKLEIKR
3.13	0.87	VH3/Vκ3 Composite Human Antibody variant of HLMC (antibody, human IgG1, kappa, V domains shown, also called VH3/Vk3) VH: QAQLVQSGAEVKKPGASVKVSCKASGYLFSNSWMNWVKQRRGAGLEWIGRIFPGDGDTNYNGKFKGRATITADKSTSTAYMELSSLRSEDTAVYFCARWGLTRDRRLYLDYWGQGTTVTVSS VL: DIVMTQSPDSLAVSLGERATINCKSSQSLLYSSNQKNYLAWYQQKPGQAPRLLIYWASTRESGVPDRFSGSGSGTDFTLTISSLQAEDVAVYYCKQYYTYPLTFGQGTKLEIKR
2.03	0.57	VH4/Vκ3 Composite Human Antibody variant of HLMC (antibody, human IgG1, kappa, V domains shown, also called VH4/Vk3) VH: QAQLVQSGAEVKKPGASVKVSCKASGYLFSNSWMNWVKQRRGAGLEWIGRIFPGDGDTNYNGKFKGRVTITADKSTSTAYMELSSLRSEDTAVYFCARWGLTRDRRLYLDYWGQGTTVTVSS VL: DIVMTQSPDSLAVSLGERATINCKSSQSLLYSSNQKNYLAWYQQKPGQAPRLLIYWASTRESGVPDRFSGSGSGTDFTLTISSLQAEDVAVYYCKQYYTYPLTFGQGTKLEIKR
3.7	1.03	VH2/Vκ3 Composite Human Antibody variant of HLMC (antibody, human IgG1, kappa, V domains shown, also called VH2/Vk3) VH: QAQLVQSGPEVKKPGASVKVSCKASGYLFSNSWMNWVKQRPGAGLEWIGRIFPGDGDTNYNGKFKGRATITADKSTSTAYMELSSLRSEDTAVYFCARWGLTRDRRLYLDYWGQGTTVTVSS VL: DIVMTQSPDSLAVSLGERATINCKSSQSLLYSSNQKNYLAWYQQKPGQAPRLLIYWASTRESGVPDRFSGSGSGTDFTLTISSLQAEDVAVYYCKQYYTYPLTFGQGTKLEIKR
4.85	1.35	VH3/Vκ1 Composite Human Antibody variant of HLMC (antibody, human IgG1, kappa, V domains shown, also called VH3/Vk1) VH: QAQLVQSGAEVKKPGASVKVSCKASGYLFSNSWMNWVKQRRGAGLEWIGRIFPGDGDTNYNGKFKGRATITADKSTSTAYMELSSLRSEDTAVYFCARWGLTRDRRLYLDYWGQGTTVTVSS VL: DIVMTQSPDSLVVSLGERATINCKSSQSLLYSSNQKNYLAWYQQKSGQAPRLLIYWASTRESGVPDRFTGSGSGTDFTLTISSLQAEDVAVYYCKQYYTYPLTFGQGTKLEIKR
3.12	0.87	VH4/Vκ1 Composite Human Antibody variant of HLMC (antibody, human IgG1, kappa, V domains shown, also called Vh4/Vk1; VH4/Vk1) VH: QAQLVQSGAEVKKPGASVKVSCKASGYLFSNSWMNWVKQRRGAGLEWIGRIFPGDGDTNYNGKFKGRVTITADKSTSTAYMELSSLRSEDTAVYFCARWGLTRDRRLYLDYWGQGTTVTVSS VL: DIVMTQSPDSLVVSLGERATINCKSSQSLLYSSNQKNYLAWYQQKSGQAPRLLIYWASTRESGVPDRFTGSGSGTDFTLTISSLQAEDVAVYYCKQYYTYPLTFGQGTKLEIKR
4.42	1.23	VH5/Vκ1 Composite Human Antibody variant of HLMC (antibody, human IgG1, kappa, V domains shown, also called VH5/Vk1) VH: QAQLVQSGAEVKKPGASVKVSCKASGYLFSNSWMNWVKQRRGAGLEWIGRIFPGDGDTNYNGKFKGRVTITADKSTSTAYMELSSLRSEDTAVYYCARWGLTRDRRLYLDYWGQGTTVTVSS VL: DIVMTQSPDSLVVSLGERATINCKSSQSLLYSSNQKNYLAWYQQKSGQAPRLLIYWASTRESGVPDRFTGSGSGTDFTLTISSLQAEDVAVYYCKQYYTYPLTFGQGTKLEIKR

Reference: patent US20150259422A1 (UNIVERSITY OF NORTH CAROLINA AT CHAPEL HILL, published 2015)
